Measurements as given in article doi:10.1101/2021.02.24.432666 (bioRxiv, 2021).
Values joined by “and” are separate entries in the source; they are usually repeats but may differ in a detail not shown here. Equal values may be shown once. Read-outs that look alike come from different tables or passages of the source.

B1: yeast TRiC subunit CCT6 (natural protein)
chain: not shown
B2: yeast TRiC subunit CCT8 (natural protein, UniProt P47079 1-568, looked up)
chain: MSLRLPQNPNAGLFKQGYNSYSNADGQIIKSIAAIRELHQMCLTSMGPCGRNKIIVNHLGKIIITNDAATMLRELDIVHPAVKVLVMATEQQKIDMGDGTNLVMILAGELLNVSEKLISMGLSAVEIIQGYNMARKFTLKELDEMVVGEITDKNDKNELLKMIKPVISSKKYGSEDILSELVSEAVSHVLPVAQQAGEIPYFNVDSIRVVKIMGGSLSNSTVIKGMVFNREPEGHVKSLSEDKKHKVAVFTCPLDIANTETKGTVLLHNAQEMLDFSKGEEKQIDAMMKEIADMGVECIVAGAGVGELALHYLNRYGILVLKVPSKFELRRLCRVCGATPLPRLGAPTPEELGLVETVKTMEIGGDRVTVFKQEQGEISRTSTIILRGATQNNLDDIERAIDDGVAAVKGLMKPSGGKLLPGAGATEIELISRITKYGERTPGLLQLAIKQFAVAFEVVPRTLAETAGLDVNEVLPNLYAAHNVTEPGAVKTDHLYKGVDIDGESDEGVKDIREENIYDMLATKKFAINVATEAATTVLSIDQIIMAKKAGGPRAPQGPRPGNWDQED
B3: yeast TRiC subunit CCT7 (natural protein, UniProt P42943 1-550, looked up)
chain: MNFGSQTPTIVVLKEGTDASQGKGQIISNINACVAVQEALKPTLGPLGSDILIVTSNQKTTISNDGATILKLLDVVHPAAKTLVDISRAQDAEVGDGTTSVTILAGELMKEAKPFLEEGISSHLIMKGYRKAVSLAVEKINELAVDITSEKSSGRELLERCARTAMSSKLIHNNADFFVKMCVDAVLSLDRNDLDDKLIGIKKIPGGAMEESLFINGVAFKKTFSYAGFEQQPKKFNNPKILSLNVELELKAEKDNAEVRVEHVEDYQAIVDAEWQLIFEKLRQVEETGANIVLSKLPIGDLATQFFADRNIFCAGRVSADDMNRVIQAVGGSIQSTTSDIKPEHLGTCALFEEMQIGSERYNLFQGCPQAKTCTLLLRGGAEQVIAEVERSLHDAIMIVKRALQNKLIVAGGGATEMEVSKCLRDYSKTIAGKQQMIINAFAKALEVIPRQLCENAGFDAIEILNKLRLAHSKGEKWYGVVFETENIGDNFAKFVWEPALVKINALNSATEATNLILSVDETITNKGSESANAGMMPPQGAGRGRGMPM
B4: yeast TRiC subunit CCT3 (natural protein, UniProt P39077 1-534, looked up)
chain: MQAPVVFMNASQERTTGRQAQISNITAAKAVADVIRTCLGPKAMLKMLLDPMGGLVLTNDGHAILREIDVAHPAAKSMLELSRTQDEEVGDGTTTVIILAGEILAQCAPYLIEKNIHPVIIIQALKKALTDALEVIKQVSKPVDVENDAAMKKLIQASIGTKYVIHWSEKMCELALDAVKTVRKDLGQTVEGEPNFEIDIKRYVRVEKIPGGDVLDSRVLKGVLLNKDVVHPKMSRHIENPRVVLLDCPLEYKKGESQTNIEIEKEEDWNRILQIEEEQVQLMCEQILAVRPTLVITEKGVSDLAQHYLLKGGCSVLRRVKKSDNNRIARVTGATIVNRVEDLKESDVGTNCGLFKVEMIGDEYFSFLDNCKEPKACTIMLRGGSKDILNEIDRNLQDAMAVARNVMLSPSLSPGGGATEMAVSVKLAEKAKQLEGIQQWPYQAVADAMECIPRTLIQNAGGDPIRLLSQLRAKHAQGNFTTGIDGDKGKIVDMVSYGIWEPEVIKQQSVKTAIESACLLLRVDDIVSGVRKQE
B5: yeast TRiC subunit CCT2 (natural protein)
chain: MSVQIFGDQVTEERAENARLSAFVGAIAVGDLVKSTLGPKGMDKLLQSASSNTCMVTNDGATILKSIPLDNPAAKVLVNISKVQDDEVGDGTTSVTVLSAELLREAEKLIDQSKIHPQTIIEGYRLASAAALDALTKAAVDNSHDKTMFREDLIHIAKTTLSSKILSQDKDHFAELATNAILRLKGSTNLEHIQIIKILGGKLSDSFLDEGFILAKKFGNNQPKRIENAKILIANTTLDTDKVKIFGTKFKVDSTAKLAQLEKAEREKMKNKIAKISKFGINTFINRQLIYDYPEQLFTDLGINSIEHADFEGVERLALVTGGEVVSTFDEPSKCKLGECDVIEEIMLGEQPFLKFSGCKAGEACTIVLRGATDQTLDEAERSLHDALSVLSQTTKETRTVLGGGCAEMVMSKAVDTEAQNIDGKKSLAVEAFARALRQLPTILADNAGFDSSELVSKLRSSIYNGISTSGLDLNNGTIADMRQLGIVESYKLKRAVVSSASEAAEVLLRVDNIIRARPRTANRQHM
B6: yeast CCT5 with the N-terminal 24 amino acids truncated (CCT5^ΔNT) (domain or fragment, UniProt P40413 25-562, looked up)
chain: MGRPFIIVKDQGNKKRQHGLEAKKSHILAARSVASIIKTSLGPRGLDKILISPDGEITITNDGATILSQMELDNEIAKLLVQLSKSQDDEIGDGTTGVVVLASALLDQALELIQKGIHPIKIANGFDEAAKLAISKLEETCDDISASNDELFRDFLLRAAKTSLGSKIVSKDHDRFAEMAVEAVINVMDKDRKDVDFDLIKMQGRVGGSISDSKLINGVILDKDFSHPQMPKCVLPKEGSDGVKLAILTCPFEPPKPKTKHKLDISSVEEYQKLQTYEQDKFKEMIDDVKKAGADVVICQWGFDDEANHLLLQNDLPAVRWVGGQELEHIAISTNGRIVPRFQDLSKDKLGTCSRIYEQEFGTTKDRMLIIEQSKETKTVTCFVRGSNKMIVDEAERALHDSLCVVRNLVKDSRVVYGGGAAEVTMSLAVSEEADKQRGIDQYAFRGFAQALDTIPMTLAENSGLDPIGTLSTLKSKQLKEKISNIGVDCLGYGSNDMKELFVVDPFIGKKQQILLATQLCRMILKIDNVIISGKDEY
B7: yeast TRiC subunit CCT4 (natural protein, UniProt P39078 1-528, looked up)
chain: MSAKVPSNATFKNKEKPQEVRKANIIAARSVADAIRTSLGPKGMDKMIKTSRGEIIISNDGHTILKQMAILHPVARMLVEVSAAQDSEAGDGTTSVVILTGALLGAAERLLNKGIHPTIIADSFQSAAKRSVDILLEMCHKVSLSDREQLVRAASTSLSSKIVSQYSSFLAPLAVDSVLKISDENSKNVDLNDIRLVKKVGGTIDDTEMIDGVVLTQTAIKSAGGPTRKEKAKIGLIQFQISPPKPDTENNIIVNDYRQMDKILKEERAYLLNICKKIKKAKCNVLLIQKSILRDAVNDLALHFLSKLNIMVVKDIEREEIEFLSKGLGCKPIADIELFTEDRLGSADLVEEIDSDGSKIVRVTGIRNNNARPTVSVVIRGANNMIIDETERSLHDALCVIRCLVKERGLIAGGGAPEIEISRRLSKEARSMEGVQAFIWQEFASALEVIPTTLAENAGLNSIKVVTELRSKHENGELNDGISVRRSGTTNTYEEHILQPVLVSTSAITLASECVKSILRIDDIAFSR
B8: yeast TRiC subunit CCT1 (natural protein)
chain: not shown

Legend:
cryo-EM structure [1] = target: the molecule itself; test: cryo-EM structure
cryo-EM structure [2] = target: the molecule itself; test: cryo-EM structure; remark: listed apart in the source
[3] = target: the molecule itself; test: SEC + other: negative-staining electron microscopy
[4] = target: the molecule itself; test: negative-staining electron microscopy

Protein	stoichiometry N (cryo-EM structure [2])	binding result [3]	also measured
B1	8 subunits per ring (double ring) and 9 subunits per ring (double ring)	–	stoichiometry N (cryo-EM structure [1]): 8 subunits per ring and 9 subunits per ring
B2	–	binds	–
B3	–	binds	–
B4	–	binds	–
B5	8 subunits per ring (double ring)	–	–
B6	–	–	binding result [4]: binds
B7	–	binds	–
B8	8 subunits per ring (double ring)	–	stoichiometry N (cryo-EM structure [1]): 9 subunit pairs
